This is an account of results in paper PMC11323535, “Neisserial adhesin A (NadA) binds human Siglec-5 and Siglec-14 with high affinity and promotes bacterial adhesion/invasion” (mBio, 2024).

This assay concerns the target T1, recombinant soluble NadA (NadA_(24–350)) (Neisseria meningitidis strain 2996, UniProt Q8KH85 24-350).
T1 construct: Neisserial adhesin A (NadA) variant 3, N. meningitidis strain 2996, residues 24-350: ectodomain without the leader peptide and the anchor domain; Heated at 80°C for 2 h (thermally stressed, monomeric) in one SPR experiment; also called rNadA; NadA ectodomain
The assay is described as follows: peptide or protein array; recombinant soluble human and mouse proteins spotted; rNadA_(24–350) 1 µM in Nap-PBS overlaid for 1 h; rabbit anti-NadA serum and AlexaFluor 647 anti-rabbit IgG; MFI ≥ 30,000 high reactivity, MFI < 5,000 no reactivity. Conditions: both partners purified.

B1: Chromosome two open reading frame 66 (protein microarray) (natural protein, human, UniProt Q6UXQ4 39-117, looked up)
chain: ATVRNEDKWKPLNNPRNRDLFFRRLQAYFKGRGLDLGTFPNPFPTNENPRPLSFQSELTASASADYEEQKNSFHNYLKG
notes: human C2orf66, recombinant soluble protein; also called C2orf66; source: recombinant soluble protein produced at GNF, spotted on the microarray
With B1, the binding result is “binds”.

B2: Stathmin 2 (protein microarray) (natural protein, human, UniProt Q93045-2 1-187, looked up)
chain: MAKTAMAYKEKMKELSMLSLICSCFYPEPRNINIYTYDDMEVKQINKRASGQAFELILKPPSPISEAPRTLASPKKKDLSLEEIQKKLEAAEERRKSQEAQVLKQLAEKREHEREVLQKALEENNNFSKMAEEKLILKMEQIKENREANLAAIIERLQEKLVKFISSELKESIESQFLELQREGEKQ
notes: human stathmin 2, recombinant soluble protein; also called STMN2; source: recombinant soluble protein produced at GNF, spotted on the microarray
As for B2, the binding result is recorded as “binds”.
